We go through 4 substances from article PMC2697666 (Journal of molecular biology, 2009).

Sequence of human factor Xa (human) (P00742 41-488): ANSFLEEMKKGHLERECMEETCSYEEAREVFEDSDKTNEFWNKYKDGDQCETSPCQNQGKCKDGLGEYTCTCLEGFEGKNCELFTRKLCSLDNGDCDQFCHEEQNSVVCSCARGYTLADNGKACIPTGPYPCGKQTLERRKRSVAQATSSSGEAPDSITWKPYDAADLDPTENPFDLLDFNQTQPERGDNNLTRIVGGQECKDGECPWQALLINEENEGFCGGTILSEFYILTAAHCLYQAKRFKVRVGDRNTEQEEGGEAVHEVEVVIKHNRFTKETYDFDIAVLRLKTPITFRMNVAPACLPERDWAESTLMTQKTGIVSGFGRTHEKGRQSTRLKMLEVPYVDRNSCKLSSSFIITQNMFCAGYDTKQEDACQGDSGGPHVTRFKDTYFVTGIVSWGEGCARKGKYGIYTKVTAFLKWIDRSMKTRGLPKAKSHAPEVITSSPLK

This assay addresses human factor Xa (human).
Consider “S137A/S380C antithrombin (from UniProt P01008 33-464) (natural protein)”, for which the second-order rate constant of factor Xa inhibition (kapp), with pentasaccharide stood at 194000 M⁻¹ s⁻¹.
“S137A/V375C antithrombin (from UniProt P01008 33-464) (natural protein)” displayed a second-order rate constant of factor Xa inhibition (kapp), with pentasaccharide of 664000 M⁻¹ s⁻¹.
Then “S137A/V375C/S380C antithrombin (from UniProt P01008 33-464) (natural protein)”, with 331 M⁻¹ s⁻¹; and “recombinant beta-glycoform S137A antithrombin (from UniProt P01008 33-464) (natural protein)”, with 756000 M⁻¹ s⁻¹.
